Drawing on article PMC12903857 (2026), this text covers Kd for 7 molecules.

T1: 14-3-3σ covalently bound to molecular glue 23 (UniProt P31947 1-248, C38 covalently bound to compound 23 (chloroacetamide warhead))
T1 chain: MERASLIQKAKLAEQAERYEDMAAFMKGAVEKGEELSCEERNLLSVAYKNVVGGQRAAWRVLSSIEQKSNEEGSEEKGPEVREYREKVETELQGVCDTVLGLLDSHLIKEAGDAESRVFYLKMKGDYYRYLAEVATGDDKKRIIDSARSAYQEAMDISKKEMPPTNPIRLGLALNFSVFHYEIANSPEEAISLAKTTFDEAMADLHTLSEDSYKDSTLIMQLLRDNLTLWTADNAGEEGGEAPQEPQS

T2: 14-3-3σ, tagged with a Twin-Strep tag (UniProt P31947 1-248)
T2 chain: T1 chain

T3: B-RAF 365 (10mer) (Homo sapiens, not fully specified)
T3 chain: DRSS[pS]APNVH

B1: acetylated 12-mer A-RAF peptide (peptide)
chain: IRSTSTPNVHMV
modifications: not fully specified (residue 5, N-terminus); also: phosphoserine at 214, position in chain not mapped
B2: acetylated 12-mer C-RAF peptide (peptide)
chain: QRSTSTPNVHMV
modifications: not fully specified (residue 5, N-terminus); also: phosphoserine at 259, position in chain not mapped
B3: acetylated 12-mer B-RAF peptide (peptide)
chain: DRSSSAPNVHIN
modifications: not fully specified (residue 5, N-terminus); also: phosphoserine at 365, position in chain not mapped
B4: 15-mer A-RAF peptide (peptide)
chain: LQRIRSTSTPNVHMV
modifications: also: phosphoserine at S214, site in chain not given here
B5: 15-mer B-RAF peptide (peptide)
chain: GQRDRSSSAPNVHIN
modifications: also: phosphoserine at S365, site in chain not given here
B6: 14-3-3σ (natural protein)
chain: T1 chain
B7: 15-mer C-RAF peptide (peptide)
peptide: SQRQRSTSTPNVHMV
modifications: also: phosphoserine at S259, site in chain not given here

Non-standard residues stand in square brackets, D forms with d. No end group written: not given here. pS = N[C@@H](COP(=O)(O)O)C(=O)O

The target in assay [1] is T1, 14-3-3σ covalently bound to molecular …. The assay is described as follows: SPR; 14-3-3σ covalently bound to molecular glue 23. (In general: In SPR one partner is held on a chip, and binding of the other changes the refractive index at the surface.)
Assay [2] deals with T2, 14-3-3σ, tagged with a Twin-Strep tag. Kind of assay: SPR.
Assay [3] addresses B6. Kind of assay: FP; 100 uM compound 79.
Assay [4] addresses B6. Kind of assay: FP; 100 uM compound 32.
For assay [5], the target named is B6. The assay is described as follows: FP; 100 uM compound 80.
The target of assay [6] is B6. The assay is described as follows: FP; 100 uM compound 29.
Assay [7] has as its target B6. The assay is described as follows: FP; 100 uM compound 86.
The target of assay [8] is B6. The assay is described as follows: FP; 100 uM compound 23.
Assay [9] has as its target B6. Kind of assay: FP; 100 uM compound 70.
The target in assay [10] is B6. Kind of assay: FP; 100 uM compound 83.
Assay [11] concerns the target B6. The assay is described as follows: FP; 100 uM compound 78.
The target of assay [12] is B6. Kind of assay: FP; 100 uM compound 22.
Assay [13] has as its target B6. Kind of assay: FP; 100 uM compound 37.
For assay [14], the target named is B6. Kind of assay: FP; DMSO.
Assay [15] addresses T3, B-RAF 365 (10mer). Kind of assay: FP; 100 uM compound 86.
Assay [16] concerns the target T3, B-RAF 365 (10mer). Kind of assay: FP; 100 uM compound 37.
The target of assay [17] is T3, B-RAF 365 (10mer). The assay is described as follows: FP; 100 uM compound 32.
The target of assay [18] is T3, B-RAF 365 (10mer). Kind of assay: FP; DMSO.
Assay [19] has as its target T3, B-RAF 365 (10mer). The assay is described as follows: FP; 100 uM compound 23.
Assay [20] concerns the target T3, B-RAF 365 (10mer). Kind of assay: FP; 100 uM compound 29.

On to B1, for which the Kd stood at 1.7 nM in assay [1] and 2000 nM in assay [2].

In [1], B2 displayed a Kd of 1.2 nM.

Turning to B3, the Kd in assay [1] is 6.3 nM.

In the case of B4, the Kd in the assay with 14-3-3σ [3] was 115 nM; in the assay with 14-3-3σ [4], 50 nM; in the assay with 14-3-3σ [5] it was 1100 nM; with 14-3-3σ [6], 30 nM; with 14-3-3σ [7], 140 nM; in the assay with 14-3-3σ [8], 5 nM. Further, the Kd with 14-3-3σ [9] turned out to be 110 nM; with 14-3-3σ [10], 265 nM; in the assay with 14-3-3σ [11] it was 120 nM; in the assay with 14-3-3σ [12], 9 nM; in the assay with 14-3-3σ [13], 25 nM.

For B5, the Kd with 14-3-3σ [3] was 60 nM; with 14-3-3σ [4] it was 245 nM; with 14-3-3σ [5], 220 nM; with 14-3-3σ [6] it was 14 nM; with 14-3-3σ [14], 2240 nM; with 14-3-3σ [7], 95 nM. The Kd is 70 nM in the assay with 14-3-3σ [9], 94 nM with 14-3-3σ [10], 55 nM with 14-3-3σ [11] and 25 nM with 14-3-3σ [13].

As for B6, the Kd in the assay with B-RAF 365 (10mer) [15] came to 155 nM; in the assay with B-RAF 365 (10mer) [16] it was 52 nM; with B-RAF 365 (10mer) [17], 112 nM; in the assay with B-RAF 365 (10mer) [18] it was 650 nM; in the assay with B-RAF 365 (10mer) [19], 105 nM; in the assay with B-RAF 365 (10mer) [20] it was 140 nM.

With B7, the Kd came to 135 nM in the assay with 14-3-3σ [3]; 332 nM in the assay with 14-3-3σ [5]; 140 nM with 14-3-3σ [7]; 100 nM in the assay with 14-3-3σ [9]; 145 nM with 14-3-3σ [10]; 136 nM with 14-3-3σ [13].

A word on the Kd: it is the equilibrium constant for the complex coming apart. A lower Kd goes with higher affinity.
